The supplement of paper PMC12764529
± gives the half width of the 95% confidence interval.

test: folding stability dG unfold (combined trypsin and chymotrypsin); higher = more stable
Method: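 Folding stability of de novo designed mini-proteins (<80 aa, no Cys; designed by TrROS, TrMRF, ProteinMPNN and the joint model) was measured by cDNA display proteolysis with trypsin and chymotrypsin. Each protease was used at 11 concentrations in a threefold dilution series plus a no-protease condition. K50 was inferred by Bayesian fitting of sequencing counts, and dG unfold was derived against a sequence-predicted unfolded-state K50 (Tsuboyama et al. method). Sequences shown include variable-length N-terminal GS-type padding (SAGGSAGG...) inside a display construct carrying a PA tag. Rows were kept only if the AF2 dimer inter-PAE was >15, to exclude likely homo-oligomers.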

Sequence	folding stability dG unfold [kcal/mol]
SAGGKPPKIKIKVEHEPYPGNGRYYMEVELEDPDDGKPIEIPFRGDSPEEAEENAKEIAREIAKELKSAGGS [r8_480_TrROS]	< -1
SAGGPKIHIDRGPDYIRVKINGPDGKPIAPSTIPYEDPDNGEEEEVKIPIEELAQESGFPIEIEPYDSAGGS [r16_778_TrROS]	< -1
SAGGSAGGSAGGSGSSVTTVTEEPGRRVVTRFVPETGEEEVLSTEEVPAPPLPLSPALLSAGGSAGGSAGGS [r4_21_JUSTAS]	< -1
SAGGSAGGSAGGFKIEGNPMPDDDGPYWHIEVTHWRYNGGGPRPRKRTIMIKDPEDAKEFSAGGSAGGSAGG [r7_896_TrROS]	< -1
SAGSFSVRLTLRAPDGTTETVSGPAAVAAAIAALPADETAESSVPGSSSSSTVTLPAGGTFSLSTLSSSSAG [r5_506_JUSTAS]	< -1
SAGGTELAERIRAMGGFEVVEIKEGEGKPKVTVRTPDPALAEELRAFLAADPRVESVELEELSPELKSAGGS [r16_671_JUSTAS]	< -1
SAGPFYVRMKIEVPRKTYDPEDGEPKQEKREIDIWFPMKSEEQARDHADKLAEELPPENVKITDIEPFSAGG [r19_209_TrROS]	< -1
SAGGSAGGSAGMTLEELQKEGYKVEVIRYPDSPHWYVEIEYPDPDGKKKERTIPVDDIKPSAGGSAGGSAGG [r17_311_TrROS]	< -1
SAGGSAGGSEMKIDRIKIHDFDPDNGNYFVRIRNNGGPKHTFPVKNADELKEHLPGVKVEVIKSAGGSAGGS [r12_403_TrROS]	< -1
SAGGSAGGSAGGSSVEEEFLAYAKANPEPAPFEFEGPDEKVLLYFPPGGEIDPVSIELKSAGGSAGGSAGGS [r4_438_JUSTAS]	< -1
SAGGMRIPLKQIKDVNHQPPPGNGYPMVTVKVRDGGKPHTHTIPNNMNWEEAKRMVEEALDEGPIEIESAGG [r13_225_TrROS]	< -1
SAGGSAMKFYIKYDPKKEKTILILPENNPDLEGNDGSKVIKVENEEELIKLIEEAKKKGIKKIEIKSAGGSA [r15_1004_TrMRF]	< -1
SARYKRNPDGKPRREEPVPPKPPTIEIPIPFNMPPDDPEMMKRFAEMIADMLADEHGLPPNVPIHISMNSAG [r14_453_TrROS]	< -1
SARLFTIRIQGPPEQLKDALQEEFDMEVNIEPEPNGSTTITFELPPNNYDRFEEALEQLPGFPIEIEPVSAG [r14_521_TrROS]	< -1
SAGGSAGGMKVTFDDGVEETLNLTEEEAKAWAESRPDRKMTRIEKEPPEKLSPENLTPEAIKLKSAGGSAGG [r6_881_JUSTAS]	< -1
SAGGPSMSLSTRTVTLPVDPDTTEEEIKEALNREVKLPSPSTAIETPVEVEISPGPPVATVTLQVKILSSAG [r5_939_JUSTAS]	< -1
EPNYLVQIEIEPRMYQKDEDGKPLKPQPMKQPFFGPADDPEQVKDNLRDNFGPEVEIDEVMPLEDINEGQFS [r1_493_TrROS]	< -1
SAGGSAGGSAGGPKEIPIKIKIYPPNGRKRERPVPLKSEEQALDQLQEAMPPGWFIEIWSAGGSAGGSAGGS [r10_145_TrROS]	< -1
SAGGSAGGSAGGSMKIYVTSPEEAKKEKEKILEELKKTNIPPKVKVEVKVIPKSEIPLESAGGSAGGSAGGS [r4_472_JUSTAS]	< -1

Sequence	folding stability dG unfold [kcal/mol]
SAGGDPDWKPIEFNLQRTVKPGDPEQIEEKAREFFEMFGIKSVTDVERERNPEGQQTVQASVKIRFPDSAGG [r13_222_TrROS]	< -1
SAGGSAGGSASPVQRILARLPSGEPFEAVYDPSTGTIDVLGEGKPSTIPAGTPVEVLEVRLESAGGSAGGSA [r18_144_JUSTAS]	< -1
SAGKPRPIINIEWQPNPDGQPNLTISVMRRDPKNGDMKPREYTIDPGADPEDLIKKALDEGADYVSIHPSAG [r5_37_TrROS]	< -1
SAGGSMPIDDIKEINIQYNPNTGTVMVPFRLPNGHEIMAEQKYDPEAGWPVIPIRVNDGKPIEIPISAGGSA [r2_490_TrROS]	< -1
SAGGSAGGSMEITVTLPPDQTAEDAIAALPSEYKNVTVLETSTTFPPTTDETPTVTLTIKVTKSAGGSAGGS [r12_822_JUSTAS]	< -1
SAGGSAGGSAGGMTIRVVPVEITPDSSGVLRRDIEEVAAANPDAEVLETTPTSVLVRYKRSAGGSAGGSAGG [r11_771_JUSTAS]	< -1
SAGGSAGGMPESAPPVPLPTSTVPLSEARAAGIEVPPGSERVIRTPSGVTYRISSATGTVTVVGSAGGSAGG [r6_275_JUSTAS]	< -1
SATLRDLIKELGFPMDIEHDGDSVKITMRNPDDPNPGQEQTFEIPPPNGKPLKFKIRMRNNGIQEIEPESAG [r14_401_TrROS]	< -1
SNFYFTIEIERPDPNGEEKKIEITIPMERINQELQEEHGMESPQEAQEYFAKEIAEKFDENGYKVKIEPFSA [r9_868_TrROS]	-0.316 ± 0.52
SAGGSAGGSAGDLPPGKEIEIMMSTPEWADEFADNFPNAKIKIEPMPPKPKYDPETGKGYSAGGSAGGSAGG [r17_126_TrROS]	< -1
SAGGMLRTVKTEKYSDGTVVEPVADAAGNVTYTIVKKRKKVFDGDKVYYSEPVTIFKNGVKVEEKNISSAGG [r13_1007_JUSTAS]	< -1
SAGGGVSYSFSSSGSGSTVTIYIPGSGKTLKRKVNPNDTITDIPSSAKPYKVVKEVNDEKPVEEELGSAGGS [r8_487_JUSTAS]	-0.855 ± 0.72
SAMVVPVELEGPVGDLDELKEKTKKEVEEELGLPDDLENITVTVEKIEPLPDPEGKPVTTRIKLKITVKSAG [r14_736_JUSTAS]	< -1
SAGGPGVEIVEVDPDGTLRVRAYDPATREPIAEAEIRIGALPVPPPVPGVPVLLADGELREVELPAALSAGG [r13_9_TrMRF]	< -1
SAGGKNPEENDPEYQKPPKIPSRTIPFPAEQALAWAKELPGFDNIMVEAGGKWVEIDLDDGKIEPYGSAGGS [r16_214_TrROS]	< -1
SAGGSAGGSAGGSPQIKVEYERNGGYYPVKISIPNGRKVEIPNMPVENAEKMAKEFLKKSAGGSAGGSAGGS [r4_383_TrROS]	< -1
SAGGSAGGSLTIPLPDGGTLTVVEEDEEEVLVEERKPNPGGSSPATFTRTIRRPPPVLPPKLVSAGGSAGGS [r12_959_JUSTAS]	< -1
SAGGSAGGSAGGSMVVPASEVEEYVERRKRETGDRFEVTPIPEEGVTPVRLEPADPALESAGGSAGGSAGGS [r4_419_JUSTAS]	< -1
SAGGSAGGSAGMVTTSETITVTVTLPTGPTETITVPVTTTVPVVPVSPEVAAADPAAVAALLSAGGSAGGSA [r18_114_JUSTAS]	< -1

Sequence	folding stability dG unfold [kcal/mol]
SAGGSAGGSAGGPIKVETEPYPDGYHRVEIMLPGNGQKKEIHFPNGQTPEQAKDWIKEWSAGGSAGGSAGGS [r10_825_TrROS]	< -1
SAGGSAGGSAGMKVEPKEDPVVDKSGKPKPITKIYVYVPEPLREEALKEAEENGEEVVLESAGGSAGGSAGG [r17_114_JUSTAS]	< -1
SAGGSAGGSAGGKLRIFYPNPWQARWRAKTIQNEMMDNGYKIPPNVEIEIHPMRPDPGDWSAGGSAGGSAGG [r7_965_TrROS]	< -1
SAGGSAGGIKPGQRVRVKLEQWSPNGEPQKHTFPIKNIPPGFKPGQELTFPGPGHKWRIDEITRSAGGSAGG [r6_561_TrROS]	< -1
SSFKTKITILEERELEPVPDRNGTPNPVRLVTIAVTNLGPESVSPEVVEKVKKEVEEKFKEEGIPVEIKDES [r1_305_JUSTAS]	< -1
SPAIVLATSDPSTRRRTVFVAQSHPPGPAVPDLGFDIPIGDNLYLGASISVSPSGPVNIDSIIVGPPDSLSA [r9_780_TrMRF]	< -1
SAGGQKITIDNVTPGMIRIRVPNGNEFEFPEIQKELQEHGNNQPPTADQIAEWLRKRNFPIKDIEISDSAGG [r13_610_TrROS]	< -1
SMPYLVRVLAELPDGELLGEAEAEVLPGEELVFSDPLPVRVRAVIYDPETDEPREVEADGRVGVLVVPVESA [r9_272_TrMRF]	< -1
SAGGSAGGSTIMIPPGMPPEEAKAWARDIAREQGFPPGRDLNVEVEPQPFDGGPWYTIDIEWDSAGGSAGGS [r12_252_TrROS]	< -1
SAGGSAGGSAGGMPVSFEELKKLPPNTVLIFSDGTVVTAPEEEVKKPFGKEKIVYVEEKPSAGGSAGGSAGG [r7_643_JUSTAS]	< -1
SAGGSAGGSAGTTLLETEELPGPVRVTVERYKLPDGTLRVRTTEIDPSTGARHPREELVESAGGSAGGSAGG [r11_727_JUSTAS]	< -1
SAGGSAGGSGSPSRPSPVLKFTFPKDPKPVTVPIPSGDPAAAAAAAAALEAAHPDTPVAVEAASAGGSAGGS [r12_601_JUSTAS]	< -1
SAGGSAGGSAGGSGVKTRAGSFPDRDYTITEDPVVPGIYTVKFPPEVTVTLPKSEIPPLSAGGSAGGSAGGS [r10_556_JUSTAS]	< -1
SSFKLYKRPDGSPYLTAPVPEKNLKSALDPSTGVPYIATTPGGELGALSLLADSLEELLKLPPLTFTKPGSA [r9_205_JUSTAS]	< -1
SAGGSAGGSAGGPPIPIRIKLEHPDNGKKHTHEFPPGMSLKEVKNYMEKHPGYKIKDIEISAGGSAGGSAGG [r7_624_TrROS]	< -1
SAGGANAKDVKRDGNNIQITFDGQILFKIQPPKPVPPVRVRHPDGKEHHAPLEDLKKENPDNWEIEPPSAGG [r13_802_TrROS]	< -1
SAGGSAGGSAGMEIKYVPEEGLIEVVEKTPKKLPLYSPRYGLEYETKVTTIPPGELDKPLSAGGSAGGSAGG [r11_531_JUSTAS]	< -1
SSVSFDPATGTTTVTTTTPTGPDSPVLTTTTTTLTTNPDGTVTTTTTTTTTTVAPAAPLLTPANLALRAALS [r1_4_JUSTAS]	< -1
SAGGSAMKYTLKDKDGKTITIEVEEHENPDGEPWYEVDIEHPNDGKEKKVYMPPNNPEEFAKKFLKSAGGSA [r15_92_TrROS]	< -1
